From patent US6569458B1, “Process for producing small particles of biologically active molecules” (Alkermes Controlled Therapeutics, Inc., priority 1989, dated 2003)

Tests used:
[1] = Particle size analysis of fragmented particles (Microtrac small particle analyzer); type: physicochemical; details: for mean particle diameter / size distribution for the effective diameters: ammonium bicarbonate buffer, ethyl acetate, ultrasonic irradiation; for mean particle diameter after five minutes sonication: atomized into liquid nitrogen, lyophilized, sonicated in ethanol 5 min; for Particle Size: sonicated 5 min
Method: A 50 mg sample of the lyophilized microspheres was suspended in 5 ml of 100 percent ethanol solution and cooled in an ice water bath to 0° C. With continuous cooling, the HRP porous particles were then exposed to an ultrasonic probe (Virtis Company Inc., Virsonic 300) for different times. Samples were analyzed for particle size diameter on a Microtrac Model 7995 Small Particle Analyzer (Leeds and Northrup).
The hemoglobin particles were suspended in ethyl acetate and fragmented by subjecting them to ultrasonic irradiation with cooling by an ice bath.

[2] = Diameter of particles by light microscopy; type: physicochemical
Method: A 250 mg sample of the enzyme horse radish peroxidase (HRP) (Sigma Chemical Co, St. Louis, Mo.) was dissolved in 10 ml of a 0.05 M phosphate buffer solution having a pH of 7.2. The solution was atomized through an ultrasonic nozzle (SonoTek Corp., Model 8700-60MS) into a stirred container of liquid nitrogen. The liquid nitrogen containing the frozen atomized spheres was next placed in a −80° C. freezer until the liquid nitrogen evaporated, about one to two hours. The frozen protein spheres were then placed in a lyophilizer (Virtis Company Inc., Model 10-MR-TR) for at least 12 hours to produce porous particles.
The sample prepared from 100 mg ammonium bicarbonate/ml was suspended in ethyl acetate and fragmented by ultrasonic irradiation.
This was ultrasonicated to form frozen particles which were lyophilized according to the procedure of Example 1.

[3] = Scanning electron micrographs (SEM) of particles; type: physicochemical
Method: 125 mg bovine hemoglobin dissolved in 5 ml 0.05 M ammonium bicarbonate was formed into particles by spraying and lyophilization, according to the procedure of Example 1. […] A control solution containing only ammonium bicarbonate was also sprayed and lyophilized as described in Example 1.
The hemoglobin particles were suspended in ethyl acetate and fragmented by subjecting them to ultrasonic irradiation with cooling by an ice bath. When the resulting particles were subjected to particle size analysis using a Leeds & Northrup Microtrac small particle analyzer, the mean particle diameter was 3.7±2.8 micrometers.

[4] = Heme absorption, second derivative spectra of processed hemoglobin; type: physicochemical, bovine; details: homogenized particles stored in ethyl acetate for seven days, dissolved in 0.2 M sodium phosphate pH 7.7
Method: The homogenized hemoglobin particles were stored in ethyl acetate for seven days, after which the solvent was decanted and the hemoglobin dried under vacuum at room temperature. The resulting solid was dissolved in 0.2 M sodium phosphate pH 7.7, and its heme absorption compared with that of freshly dissolved bovine hemoglobin, as well as with hemoglobin denatured in 6 M guanidinium chloride, using a Hewlett Packard diode array spectrophotometer. In order to accentuate spectral features, the second derivative of absorption with respect to wavelength was obtained for each sample.

[5] = Particle size analysis of fragmented particles (Microtrac small particle analyzer); type: physicochemical; details: ethyl acetate
[6] = HRP enzyme activity, rate of oxidation of p-anisidine; type: biochemical
Method: The activity of the HRP was determined after the lyophilization step and after the ultrasonication step. The method used to determine the enzyme activity is based upon the rate of oxidation of p-anisidine and is described in detail in The Worthington Enzyme Manual, Worthington, D. D., (ed.), Worthington Biochemical Corp., Freehold, N.J., p. 254 (1988).

[7] = SOD enzyme activity, inhibition of the reduction of nitro-blue tetrazolium by the superoxide anion; type: biochemical
Method: The activity of the SOD was determined after the lyophilization step and after the ultrasonication step. The method used to determine the enzyme activity is based upon the ability of SOD to inhibit the reduction of nitro-blue tetrazolium by the superoxide anion. This assay is described in detail by Winterbourne, et al., in “The Estimation of Red Cell Superoxide Dismutase Activity,” J. Lab. Clin. Med., 85, 337 (1975). After the lyophilization step, the SOD had 94% of its original activity. After the ultrasonication step, the SOD has 91% of its original activity.

NCC(=O)O [Glycine]
mean diameter after ultrasonication ([1]; […] solution in deionized water, ultrasonication for 4 min): 3.2±1.9 micrometers
mean diameter of porous particles ([2]; light microscopy, after lyophilization, before ultrasonication): 24.4±14.6 micrometers

C[C@]12CC[C@H]3[C@@H](CCC4=CC(=O)CC[C@@]43C)[C@@H]1CC[C@@H]2O [testosterone, reference compound]
mean diameter of resulting particles ([1]; […] solution in 1,4 dioxane): 5.4±2.9 micrometers

bovine hemoglobin
mean particle diameter / size distribution for the effective diameters [1]: 3.7±2.8 micrometers
mean particle diameter after five minutes sonication [1]: 1.8±1.3 micrometers
mean particle diameter after 5 minutes sonication ([1]; sprayed into liquid argon before lyophilization): 3.6±2.8 micrometers
length of flat irregular plates (SEM of sonicated particles) [3]: ~1.0 micrometer
thickness of flat irregular plates (SEM of sonicated particles) [3]: 0.1 micrometer
second derivative heme absorption spectrum compared with fresh hemoglobin [4]: identical
size distribution for the effective diameters ([5]; after 80 sec of homogenization): 7.2±3.7 micrometers
particle diameter size distribution ([5]; after 300 sec of homogenization): 6.6±3.7 micrometers

catalase
mean particle diameter after five minutes sonication [1]: 4.5±3.3 micrometers

dextran
mean particle size as a function of solution concentration ([1]; 20, 10, 5, 1, 2.5 and 0.5 percent solutions, ethanol, ultrasonicated five minutes): smallest particles are produced using 0.5 to 5% dextran solutions

heparin [reference compound]
mean particle diameter after five minutes sonication [1]: 6.9±4.0 micrometers

horse radish peroxidase [HRP]
original activity retained after each step of the particle size reduction process ([6]; after the lyophilization step and after the ultrasonication step, phosphate buffer pH 7.2, ethanol): ≥ 90%
activity retained during the process ([6]; ammonium bicarbonate buffer, ethyl acetate, ultrasonic fragmentation (Example 13)): 90%
mean particle size as a function of time of ultrasonication ([1]; after 100 seconds ultrasonication): under five
mean particle diameter / size distribution for the effective diameters [1]: 2.8±2.2 micrometers
Particle Size ([1]; citrate/phosphate buffer pH 5.2): 2.9 ± 2.1 µm
Particle Size ([1]; phosphate buffer pH 7.2): 3.5 ± 2.8 µm
Particle Size ([1]; tris buffer pH 9.1): 6.2 ± 3.7 µm
diameter of the porous spheres after lyophilization ([2]; before sonication, range): 25-35 micrometers

superoxide dismutase [SOD]
original activity after the lyophilization step ([7]; after lyophilization): 94%
original activity after the ultrasonication step ([7]; after ultrasonication): 91%
mean particle diameter after five minutes sonication [1]: 2.7±2.1 micrometers
